Reference: patent publication US20240279318A1 (NANJING LEGEND BIOTECH, published 2024)
Where a chain is given by its changes, count along the chain named.

B1: LD97Q (scFv)
scFv: QSALTQPRSVSGSPGQSVTISCAGTSSDVGSENYVSWYQQHPGKAPKLMIYQVNKRASGVPDRFSGSKSGNTASLTISGLQAEDEADYYCASYRSSQHNIVFGGGTKLTVLGGGGSGGGGSGGGGSEVQLVESGGGLVQPGGSLRLSCAASGFTFSSYAMSWVRQAPGKGLEWVSTINSGTGSPYYADSVKGRFTISRDNSKNTLYLQMNSLRAEDTAVYYCAKNFFDGSWFLGPPAMDYWGQGTLVTVSSHHHHHH
notes: AS170036 VL1VH1 scFv mutein
B2: LD97V (scFv)
scFv: B1 scFv with Q97V
notes: AS170036 VL1VH1 scFv mutein
B3: LD97W (scFv)
scFv: B1 scFv with Q97W
notes: AS170036 VL1VH1 scFv mutein
B4: LD97Y (scFv)
scFv: B1 scFv with Q97Y
notes: AS170036 VL1VH1 scFv mutein
B5: LE32A (scFv)
scFv: B1 scFv with E32A, Q97D
notes: AS170036 VL1VH1 scFv mutein
B6: LE32H (scFv)
scFv: B1 scFv with E32H, Q97D
notes: AS170036 VL1VH1 scFv mutein
B7: LE32I (scFv)
scFv: B1 scFv with E32I, Q97D
notes: AS170036 VL1VH1 scFv mutein
B8: LE32L (scFv)
scFv: B1 scFv with E32L, Q97D
notes: AS170036 VL1VH1 scFv mutein
B9: LE32M (scFv)
scFv: B1 scFv with E32M, Q97D
notes: AS170036 VL1VH1 scFv mutein
B10: LE32N (scFv)
scFv: B1 scFv with E32N, Q97D
notes: AS170036 VL1VH1 scFv mutein
B11: LE32P (scFv)
scFv: B1 scFv with E32P, Q97D
notes: AS170036 VL1VH1 scFv mutein
B12: LE32Q (scFv)
scFv: B1 scFv with E32Q, Q97D
notes: AS170036 VL1VH1 scFv mutein
B13: LE32T (scFv)
scFv: B1 scFv with E32T, Q97D
notes: AS170036 VL1VH1 scFv mutein
B14: LE32V (scFv)
scFv: B1 scFv with E32V, Q97D
notes: AS170036 VL1VH1 scFv mutein
B15: LH98D (scFv)
scFv: B1 scFv with Q97D, H98D
notes: AS170036 VL1VH1 scFv mutein
B16: LH98K (scFv)
scFv: B1 scFv with Q97D, H98K
notes: AS170036 VL1VH1 scFv mutein
B17: LY34A (scFv)
scFv: B1 scFv with Y34A, Q97D
notes: AS170036 VL1VH1 scFv mutein
B18: LY34D (scFv)
scFv: B1 scFv with Y34D, Q97D
notes: AS170036 VL1VH1 scFv mutein
B19: LY34E (scFv)
scFv: B1 scFv with Y34E, Q97D
notes: AS170036 VL1VH1 scFv mutein
B20: LY34F (scFv)
scFv: B1 scFv with Y34F, Q97D
notes: AS170036 VL1VH1 scFv mutein
B21: LY34G (scFv)
scFv: B1 scFv with Y34G, Q97D
notes: AS170036 VL1VH1 scFv mutein
B22: LY34I (scFv)
scFv: B1 scFv with Y34I, Q97D
notes: AS170036 VL1VH1 scFv mutein
B23: LY34L (scFv)
scFv: B1 scFv with Y34L, Q97D
notes: AS170036 VL1VH1 scFv mutein
B24: LY34M (scFv)
scFv: B1 scFv with Y34M, Q97D
notes: AS170036 VL1VH1 scFv mutein
B25: LY34P (scFv)
scFv: B1 scFv with Y34P, Q97D
notes: AS170036 VL1VH1 scFv mutein
B26: LY34S (scFv)
scFv: B1 scFv with Y34S, Q97D
notes: AS170036 VL1VH1 scFv mutein
B27: LY34T (scFv)
scFv: B1 scFv with Y34T, Q97D
notes: AS170036 VL1VH1 scFv mutein
B28: LY34V (scFv)
scFv: B1 scFv with Y34V, Q97D
notes: AS170036 VL1VH1 scFv mutein
B29: LY93D (scFv)
scFv: B1 scFv with Y93D, Q97D
notes: AS170036 VL1VH1 scFv mutein
B30: LY93H (scFv)
scFv: B1 scFv with Y93H, Q97D
notes: AS170036 VL1VH1 scFv mutein
B31: LY93N (scFv)
scFv: B1 scFv with Y93N, Q97D
notes: AS170036 VL1VH1 scFv mutein
B32: LY93T (scFv)
scFv: B1 scFv with Y93T, Q97D
notes: AS170036 VL1VH1 scFv mutein
B33: HD102E (scFv)
scFv: B1 scFv with Q97D, D228E
notes: AS170036 VL1VH1 scFv mutein
B34: HF101W (scFv)
scFv: B1 scFv with Q97D, F227W
notes: AS170036 VL1VH1 scFv mutein
B35: HF101Y (scFv)
scFv: B1 scFv with Q97D, F227Y
notes: AS170036 VL1VH1 scFv mutein
B36: HG56A (scFv)
scFv: B1 scFv with Q97D, G182A
notes: AS170036 VL1VH1 scFv mutein
B37: HG56D (scFv)
scFv: B1 scFv with Q97D, G182D
notes: AS170036 VL1VH1 scFv mutein
B38: HG56E (scFv)
scFv: B1 scFv with Q97D, G182E
notes: AS170036 VL1VH1 scFv mutein
B39: HG56F (scFv)
scFv: B1 scFv with Q97D, G182F
notes: AS170036 VL1VH1 scFv mutein; also called AS170036 VL1VH1-VHG56F
B40: HG56H (scFv)
scFv: B1 scFv with Q97D, G182H
notes: AS170036 VL1VH1 scFv mutein
B41: HG56K (scFv)
scFv: B1 scFv with Q97D, G182K
notes: AS170036 VL1VH1 scFv mutein
B42: HG56L (scFv)
scFv: B1 scFv with Q97D, G182L
notes: AS170036 VL1VH1 scFv mutein
B43: HG56M (scFv)
scFv: B1 scFv with Q97D, G182M
notes: AS170036 VL1VH1 scFv mutein
B44: HG56N (scFv)
scFv: B1 scFv with Q97D, G182N
notes: AS170036 VL1VH1 scFv mutein; also called AS170036 VL1VH1-VHG56N
B45: HG56Q (scFv)
scFv: B1 scFv with Q97D, G182Q
notes: AS170036 VL1VH1 scFv mutein
B46: HG56R (scFv)
scFv: B1 scFv with Q97D, G182R
notes: AS170036 VL1VH1 scFv mutein
B47: HG56S (scFv)
scFv: B1 scFv with Q97D, G182S
notes: AS170036 VL1VH1 scFv mutein
B48: HG56T (scFv)
scFv: B1 scFv with Q97D, G182T
notes: AS170036 VL1VH1 scFv mutein
B49: HG56W (scFv)
scFv: B1 scFv with Q97D, G182W
notes: AS170036 VL1VH1 scFv mutein
B50: HG56Y (scFv)
scFv: B1 scFv with Q97D, G182Y
notes: AS170036 VL1VH1 scFv mutein; also called AS170036 VL1VH1-VHG56Y

These binders were tested against T1, AFP158/HLA-A*02:01 complex (human) (assay: SPR, scFv captured, pMHC in flow;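 also: complex injected at several concentrations over crude scFv, association then running-buffer dissociation, KD estimated from kinetic on- and off-rate constants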).
T1 construct: flowed over the chip in SPR; also called AFP158 pro

Binder	Kd [nM]
B1	580
B2	660
B3	570
B4	570
B5	700
B6	830
B7	860
B8	980
B9	590
B10	690
B11	1400
B12	570
B13	770
B14	930
B15	1100
B16	1100

Binder	Kd [nM]
B17	1700
B18	740
B19	1400
B20	780
B21	1700
B22	1800
B23	730
B24	1100
B25	1400
B26	1000
B27	2200
B28	740
B29	1200
B30	620
B31	1400
B32	840

The binders below were run against T1, AFP158/HLA-A*02:01 complex (assay: SPR, KD ratio to AS170036 VL1VH1;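 also: crude scFv captured on a sensor chip, peptide–HLA complex passed over at several concentrations, association then buffer dissociation, KD derived from on- and off-rates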).
Protocol: (§1) The experiment was carried out as follows. The crude scFv protein were captured onto the sensorchip. Different concentrations (320, 160, 40 nM) of AFP158/HLA-A*02:01 complex flowed over the sensorchip surface, and were allowed to bind the antibody fragment for 100 s followed by injection of the running buffer to allow dissociation of the complex. On-rate (kd) and off-rate (kd) were calculated based on association and dissociation curve, and were used to estimate the equilibrium dissociation constant (KD).

Binder	Affinity increase [fold]
B33	1.2
B34	0.8
B35	1.1
B36	1.4
B37	1
B38	1
B39	2.3
B40	1.5
B41	0.7
B42	0.8
B43	1.7
B44	2.5
B45	1
B46	0.8
B47	1.5
B48	0.7
B49	1.7
B50	6.6

Biological target: T1, AFP158/HLA-A*02:01 complex
Assay: SPR, scFv captured, pMHC in flow
Remark: another data set of the same source
Protocol: as §1

Binder	Kd [nM]
B33	190
B34	300
B35	210
B36	160
B37	230
B38	240
B39	98
B40	150
B41	350
B42	290
B43	130
B44	92
B45	240
B46	300
B47	160
B48	340
B49	130
B50	35

Biological target: T1, AFP158/HLA-A*02:01 complex
Assay: SPR, KD ratio to AS170036 VL1VH1
Remark: another data set of the same source
Protocol: as §1

Binder	Affinity increase [fold]
B1	0.4
B2	0.4
B3	0.4
B4	0.4
B5	0.3
B6	0.3
B7	0.3
B8	0.3
B9	0.4
B10	0.4
B11	0.2
B12	0.4
B13	0.3
B14	0.3
B15	0.2
B16	0.2

Binder	Affinity increase [fold]
B17	0.1
B18	0.3
B19	0.2
B20	0.3
B21	0.1
B22	0.1
B23	0.3
B24	0.2
B25	0.2
B26	0.2
B27	0.1
B28	0.3
B29	0.2
B30	0.4
B31	0.2
B32	0.3
